B2: recombinant mouse E-selectin/CD62E Fc chimera (E-Ig) (Fc fusion, UniProt Q00690 22-557, looked up)
chain: WYYNASSELMTYDEASAYCQRDYTHLVAIQNKEEINYLNSNLKHSPSYYWIGIRKVNNVWIWVGTGKPLTEEAQNWAPGEPNNKQRNEDCVEIYIQRTKDSGMWNDERCNKKKLALCYTASCTNASCSGHGECIETINSYTCKCHPGFLGPNCEQAVTCKPQEHPDYGSLNCSHPFGPFSYNSSCSFGCKRGYLPSSMETTVRCTSSGEWSAPAPACHVVECEALTHPAHGIRKCSSNPGSYPWNTTCTFDCVEGYRRVGAQNLQCTSSGIWDNETPSCKAVTCDAIPQPQNGFVSCSHSTAGELAFKSSCNFTCEQSFTLQGPAQVECSAQGQWTPQIPVCKAVQCEALSAPQQGNMKCLPSASGPFQNGSSCEFSCEEGFELKGSRRLQCGPRGEWDSKKPTCSAVKCDDVPRPQNGVMECAHATTGEFTYKSSCAFQCNEGFSLHGSAQLECTSQGKWTQEVPSCQVVQCPSLDVPGKMNMSCSGTAVFGTVCEFTCPDDWTLNGSAVLTCGATGRWSGMPPTCEAPVSPTRP
notes: E-selectin (CD62E), mouse; Mouse is named only in the flow cytometry methods; also called E-selectin-hIg chimera; recombinant E-selectin–Ig chimera; source: bought: R&D
B3: P-selectin glycoprotein ligand-1 (PSGL-1) from activated human T-cells (natural protein, human (endogenous in activated T-cells), UniProt Q14242 42-412, looked up)
chain: QATEYEYLDYDFLPETEPPEMLRNSTDTTPLTGPGTPESTTVEPAARRSTGLDAGGAVTELTTELANMGNLSTDSAAMEIQTTQPAATEAQTTQPVPTEAQTTPLAATEAQTTRLTATEAQTTPLAATEAQTTPPAATEAQTTQPTGLEAQTTAPAAMEAQTTAPAAMEAQTTPPAAMEAQTTQTTAMEAQTTAPEATEAQTTQPTATEAQTTPLAAMEALSTEPSATEALSMEPTTKRGLFIPFSVSSVTHKGIPMAASNLSVNYPVGAPDHISVKQCLLAILILALVATIFFVCTVVLAVRLSRKGHMYPVRNYSPTEMVCISSLLPDGGEGPSATANGGLSKAKSPGLTPEPREDREGDDLTLHSFLP
modifications: O-glycans
notes: P-selectin glycoprotein ligand-1 (CD162), human; also called CD162

Legend:
[1] = biological target: CD44/HCELL from activated human T-cells (human (endogenous in activated T-cells))
[2] = biological target: CD44/HCELL from activated human T-cells (human (endogenous in activated T-cells)); experiment: SPR; BIAcore CM5 chip; CD44 and PSGL-1 captured from activated T-cell lysate by immobilised mAbs; 10 E-Ig concentrations (0.456-466.7 nM) injected at 30 ul/min in 150 mM NaCl running buffer; KD from steady-state fit; apparent koff from the buffer wash after the last injection; apparent kon calculated (Eq. 1 in Supplementary Material); isotype control subtracted
[3] = biological target: B3; experiment: as above; settings: both partners purified
[4] = biological target: B2; experiment: as above; settings: both partners purified

B1: E-selectin on CHO cells expressing E-selectin (CHO-E) (receptor)
chain: WSYNTSTEAMTYDEASAYCQQRYTHLVAIQNKEEIEYLNSILSYSPSYYWIGIRKVNNVWVWVGTQKPLTEEAKNWAPGEPNNRQKDEDCVEIYIKREKDVGMWNDERCSKKKLALCYTAACTNTSCSGHGECVETINNYTCKCDPGFSGLKCEQIVNCTALESPEHGSLVCSHPLGNFSYNSSCSISCDRGYLPSSMETMQCMSSGEWSAPIPACNVVECDAVTNPANGFVECFQNPGSFPWNTTCTFDCEEGFELMGAQSLQCTSSGNWDNEKPTCKAVTCRAVRQPQNGSVRCSHSPAGEFTFKSSCNFTCEEGFMLQGPAQVECTTQGQWTQQIPVCEAFQCTALSNPERGYMNCLPSASGSFRYGSSCEFSCEQGFVLKGSKRLQCGPTGEWDNEKPTCEAVRCDAVHQPPKGLVRCAHSPIGEFTYKSSCAFSCEEGFELHGSTQLECTSQGQWTEEVPSCQVVKCSSLAVPGKINMSCSGEPVFGTVCKFACPEGWTLNGSAARTCGATGHWSGLLPTCEAPTESNIPLVAGLSAAGLSLLTLAPFLLWLRKCLRKAKKFVPASSCQSLESDGSYQKPSYIL
B1 was tested, and the average velocity of CHO-E cells rolling over the immuno-purified ligand on a blot (blot rolling assay, 0.5 dyn cm^-2, 2 mM Ca2+) [1] was 3.3.

In the case of B2, the Kd [2] is reported as 777 nM, the koff [2] is reported as 4.9e-05 s⁻¹ and the kon [2] is reported as 61 M⁻¹ s⁻¹. The “stoichiometry N” value [3] was ≥ 2 E-selectin dimers per PSGL-1 dimer.

Binder B3 has a Kd [4] of 467 nM, a koff [4] of 2.5e-05 s⁻¹ and a kon [4] of 52 M⁻¹ s⁻¹.

Reference: publication PMC5413510, “An Analysis of Trafficking Receptors Shows that CD44 and P-Selectin Glycoprotein Ligand-1 Collectively Control the Migration of Activated Human T-Cells” (Frontiers in Immunology, 2017)
